Source: patent publication US20190256595A1 (INSTITUT NATIONAL DE LA SANT ET DE LA RECHERCH M DICAL …, published 2019)
Numbering of substitutions follows the chain as printed.

T1: Flag-tagged CD160-TM isoform expressed on HEK cells (human)
T1 construct: In the immunoprecipitation the protein came from a 1% NP40 lysate of these cells; Bands were read as mono-, di- and quadrimeric forms; also called HEK-CD160TM; Flag-tagged CD160TM receptor; not shown: Flag tag
T1 chain: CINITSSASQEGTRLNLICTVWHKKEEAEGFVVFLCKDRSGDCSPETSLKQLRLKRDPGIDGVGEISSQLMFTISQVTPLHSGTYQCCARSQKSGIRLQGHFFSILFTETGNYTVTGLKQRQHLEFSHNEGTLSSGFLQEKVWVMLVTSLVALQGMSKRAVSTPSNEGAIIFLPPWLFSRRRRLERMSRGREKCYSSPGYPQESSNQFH

T2: CD160 GPI-anchored isoform expressed on CHO cells (human, UniProt O95971 26-160, GPI anchor at the C terminus end)
T2 construct: also called CHO-CD160-GPI
T2 sequence: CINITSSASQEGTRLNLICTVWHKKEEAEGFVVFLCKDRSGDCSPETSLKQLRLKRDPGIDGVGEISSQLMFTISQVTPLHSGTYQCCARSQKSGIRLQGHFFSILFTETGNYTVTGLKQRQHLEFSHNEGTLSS

T3: recombinant soluble CD160-His Tag (human, UniProt O95971 26-160)
T3 construct: also called sCD160; CD160 soluble isoform; not shown: His tag
T3 sequence: T2 sequence

T4: CD160-TM isoform (CD160 transmembrane isoform) (human)
T4 chain: T1 chain

B1: A12 antibody (fully human A12 antibody) (antibody, human IgG1, V domains shown)
VH: EVQLVESGGSLVKPGGSLRLSCAASGFTFSNYSMNWVRQAPGKGLEWISYIYGSSRYISYADFVKGRFTISRDNATNSLYLQMNSLRAEDTAVYYCVRSYYGGMDVWGRGTLVTVSS
VL: QSVLTQPASVSGSPGQSITISCAGTSSDVGGYYGVSWYQQHPGKAPKLMIYYDSYRPSGVSNRFSGSKSGNTASLTISGLQAEDEADYYCSSSTYYSTRVFGGGTKLEK
notes: Fully human aglycosylated antibody selected by phage display on HEK-CD160TM cells; also called hu A12
B2: murine chimeric version of A12 antibody (antibody, V domains shown)
VH: B1 VH
VL: B1 VL
notes: also called muA12; mu A12
B3: B6 antibody (fully human B6 antibody) (antibody, human IgG1, V domains shown)
VH: B1 VH with S33Y, Y50G, S59N
VL: B1 VL with Y33S, G34Y, S93Y
notes: From the same phage display selection as A12

Tests used:
[1] = target: T1, Flag-tagged CD160-TM isoform expressed …; test: flow cytometry on HEK-CD160TM cells
Procedure: (§1) CHO and HEK transfected cells were labelled with the anti-CD160-GPI mAb CL1-R2 or BY55, the fully human A12 or B6 antibody or their corresponding isotypic control IgG. […] Cell acquisition was performed on a CytoFlex cytometer and results were analysed with FlowJo software.
(§2) After selection on HEK-CD160TM cells, A12 and B6 specificity for CD160TM isoform was first verified by flow cytometry on both CD160-GPI and CD160TM expressing transfectants. As shown on FIG. 1, a positive labelling was obtained with A12 and B6 antibodies on HEK-CD160TM cells but not on CHO-CD160-GPI cells. Conversely, the anti-CD160-GPI mAb CL1-R2 or BY55 gave a positive labelling only on CD160-GPI-expressing cells, ruling out the possibility that A12 and B6 negativity was linked to the non-expression of CD160-GPI on CHO transfectants.

[2] = target: T2, CD160 GPI-anchored isoform expressed on …; test: flow cytometry on CHO-CD160-GPI cells
Procedure: as §1, §2

[3] = target: T3, recombinant soluble CD160-His Tag; test: sandwich ELISA: coated antibody, soluble CD160-His, anti-His-HRP
Procedure: FIG. 4: sCD160 is recognized by the antibodies CL1-R2, R&D 6700 and RB312 but not A12. 1 ug per well of antibody was coated overnight on a 96 well maxisorb plate. After saturation with PBS-5%BSA, lOng of recombinant soluble CD160-His Tag were added to each well and incubated 2h at room temperature. After washing, revelation was done with anti-His-HRP then TMB substrate.

[4] = target: T4, CD160-TM isoform (CD160 transmembrane …); test: flow cytometry on IL2-activated human PBMC, gated CD3-CD56+ NK cells
Procedure: as §1
For PBMC, CD160 labelling was performed as above. Following washes and addition of normal mouse serum, cells were incubated with a mix of CD8-FITC, CD56-PCS, CD3-APC and CD4-PC7 mAbs. After cell acquisition, analyses were performed to distinguish the CD3⁺CD4⁺ and CD3⁺CD8⁺ T lymphocytes, and the CD3⁻CD56⁺ NK cells within the lymphocytes population.

[5] = target: T1, Flag-tagged CD160-TM isoform expressed …; test: immunoprecipitation from HEK-CD160TM lysate, anti-Flag Western blot, non-reducing
Procedure: FIG. 3: Assessment of A12 specificity by immunoprecipitation. Post-nuclear lysates were prepared from HEK-CD160TM cells and subjected to immunoprecipitation with either mouse (mu IgG) or human (hu Ig) isotypic control IgG, chimeric murine A12 (mu A12) or fully human A12 (hu A12) antibody. […] Arrows indicate CD160TM-related signals.
HEK-CD160TM cells, that express a Flag-tagged version of CD160TM isoform, were lysed in 1% NP40 lysis buffer. Post-nuclear lysates were prepared and subjected to immuno-precipitation with the fully human A12 antibody or mouse chimeric A12. Human and mouse IgG were used as negative controls, respectively. Immune complexes were further collected with protein G Sepharose beads. Following washes, non-reducing sample buffer (devoid of reducing agent) was added and samples were finally heat-denatured. Proteins were separated by SDS-10% PAGE, electrically transferred on a nitrocellulose membrane and subjected to immuno-blotting with and anti-Flag mAb plus HRP-coupled goat anti-mouse IgGs. Revelation was performed by enhanced chemiluminescence and images acquired with an ImageQuant LAS device.

[6] = target: T3, recombinant soluble CD160-His Tag; test: sandwich ELISA: coated antibody, soluble CD160-His, anti-His-HRP (data not shown)

| Binder | binding result [1] | binding result [2] | binding result [3] | binding result [4] | binding result [5] | binding result [6] |
| --- | --- | --- | --- | --- | --- | --- |
| B1 | binds | no binding | no binding | binds | – | – |
| B2 | – | – | – | – | binds | – |
| B3 | binds | no binding | – | – | – | no binding |
